US20150118700
Changes are numbered by the printed parent chain.

B1: CFP-T7 (protein)
chain: MTSNRADTRVIVVGGGGTIGSSTALHLVRSGYAPANITVLDTFEIPSAQSAGHDLNKIMGIRLRNKVDLQMSLEARQMWKEDELFQPFFHNTGRMDCEHTPEGIEDLKKQYQALHDAGAGLEKTHAWLDNEDEILSKMPLLQRDQIQGWKAIWSQDGGWLAAAKAINAIGQFLKERGVKFGFGGAGSFKQPLFDDEGTTCIGVETADGTKYYADKVVLAAGAWSPTLVDLEDQCCSKAWVYAHIQLTPEEAAEYKGVPVVYNGEFGFFFEPDEFGVIKVCDEFPGFSRFKEHQPYGAPSPKRISVPRSHAKHPTDTYPDASEVSIKKAIATFLPRFQDKELFNRALCWCTDTADAALLMCEHPKWKNFILATGDSGHSFKILPNVGKYVVELIEGRLPEEMAYQWRWRPGGDALKSRRAAPPKDLADMPGWKHDPKL
B2: CFP-T7-H2-62N (protein)
chain: B1 chain with R62N, Q110L
B3: CFP-T7-H20 (protein)
chain: B1 chain with R62D, D106K, Q110L, A113K
B4: CFP-T7-62D (protein)
chain: B1 chain with R62D
B5: CFP-T7-H21 (protein)
chain: B1 chain with R62D, D106K, Q110L, A113R
B6: CFP-T7-H35 (protein)
chain: B1 chain with R62D, L63H, E102K, D106K, Q110L, A113K, A355S
B7: Cc95FX-62D/63H/106K/110L/113K/353S (protein)
chain: MAPSRANTSVIVVGGGGTIGSSTALHLVRSGYTPSNITVLDAYPIPSSQSAGNDLNKIMGIDHRNKVDLQLSLEARQMWREDDLFKEYFHNTGRLDCAHGEEGLAKLRQLYQKLLDANAGLEETTEWLDSEDEILKKMPLLSRDQIKGWKAVYSQDGGWLAAAKAINAIGEYLRAQGVKFGFGGAGSFKQPLLAEGVCIGVETVDGTRYYADKVVLAAGAWSPTLVELHEQCVSKAWVYGHIQLTPEEAAEYKNSPVVYNGDVGFFFEPNEHGVIKVCDEFPGFTRFKMHQPFGAKAPKRISVPRSHAKHPTDTIPDASEKSIRKAIATFLPKFTEKELFNRHLCWCTDTADSALLICEHPEWKNFVLATGDSGHSFKLLPNIGKHVVELLEGTLADDLAHAWRWRPGSGDALKSRRSAPAKDLADMPGWKHDDVVKSKL

Experiments:
[1] = target: T1, α-fructosyl valyl histidine
T1 chain: VH

[2] = target: T2, α-fructosyl hexapeptide (α-fructosyl-valyl-histidyl-leucyl-threonyl-propyl-glutamic acid)
T2 chain: VHLTPE

Protein	Specific activity (U/mg), 1 mM αFVH [1]	Specific activity (U/mg), 1 mM αF6P [2]	αF6P oxidation activity, relative to αFVH oxidation activity designated to be 100 (relative (αFVH = 100)) [2]	other results
B1	16.5 U/mg	0 U/mg	0	ΔA at 751 nm (hydrogen peroxide generated upon oxidation of αF6P) against αF6P concentration [2]: no correlation was observed between ΔA and αF6P concentration
B2				αF6P oxidation activity ratio, relative to CFP-T7-H2 designated to be 100 (relative (CFP-T7-H2 = 100)) [2]: 120
B3	4.28 U/mg	0.85 U/mg	20.5	αF6P oxidation activity ratio (reference, designated to be 100) (relative (CFP-T7-H20 = 100)) [2]: 100
B4	1.62 U/mg	0.018 U/mg		specific activity on αF6P, fold over PnFX (Present Invention 26/Comparative Example 3) [2]: 2 times (Present Invention 26/Comparative Example 3) to 1,940 times (Present Invention 25/Comparative Example 2) greater
B5	4.05 U/mg	0.795 U/mg	20.8	
B6	1.9 U/mg	4.27 U/mg		specific activity on αF6P, fold over FAOAo2 (Present Invention 25/Comparative Example 2) [2]: 2 times (Present Invention 26/Comparative Example 3) to 1,940 times (Present Invention 25/Comparative Example 2) greater; ΔA at 751 nm (hydrogen peroxide generated upon oxidation of αF6P) against αF6P concentration [2]: a favorable correlation was developed between ΔA and αF6P concentration in the range of αF6P concentration from 0.5 µM to 10 µM; αF6P oxidation activity ratio, relative to CFP-T7-H28 = 100 as the table shows (relative (CFP-T7-H28 = 100)) [2]: 206
B7			237	
